Results reported in the supplement of paper PMC9732359.
± gives the uncertainty stated by the source.

Experiment: protein stability index of a GFP-peptide fusion (yeast GPS) (PSI 1-4); higher = more stable; sorted into four equal gates, so the index is relative within each strain
Outline: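 Mid-log yeast cultures in leucine-free medium, carrying a pooled plasmid library, were sorted into four equal gates by their GFP/Cherry fluorescence ratio. Each plasmid expressed Cherry along with GFP fused upstream of a tiled 17-residue yeast protein peptide. Plasmids recovered from each gate were PCR-amplified and Illumina-sequenced, with reads assigned to strains by barcodes. The protein stability index was obtained by summing each gate's read frequency weighted by its gate number.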

| Sequence | protein stability index (doa10∆) | protein stability index (pdr5∆) | protein stability index (san1∆) | protein stability index (ubr1∆) |
| --- | --- | --- | --- | --- |
| LKRNSWPKTRGVAMNPV [RPL2A] | 2.95 ± 0.18 | 3.32 ± 0.2 | 3.2 ± 0.16 | 2.83 ± 0.085 |
| EQKLQTVLETLLSDVNQ [SMC3] |  |  |  | 1.22 ± 0.13 |
| LRRVNARYVIATSTKVS [RPL6A] | 1.45 ± 0.058 | 1.34 ± 0.047 | 1.25 ± 0.095 | 1.14 ± 0.035 |
| LQETLNKSTSSEAEYSK [YIL149C/MLP2] | 3.11 ± 0.08 | 2.9 ± 0.081 | 3.27 ± 0.062 | 3.28 ± 0.068 |
| MSLKKCQEEVSTIEKDM [SMC2] | 2.48 ± 0.1 | 2.73 ± 0.12 | 2.75 ± 0.14 | 2.79 ± 0.2 |
| DTRITHLLRQTNAFLDS [SNF2] | 1.5 ± 0.037 | 1.47 ± 0.033 | 1.54 ± 0.064 | 1.61 ± 0.024 |
| QQPTASDNIASLQYINI [SMD1] | 3.27 ± 0.09 | 3.27 ± 0.098 | 3.13 ± 0.12 | 3.24 ± 0.078 |
| RTPHEIQEANSVDMSAL [RIP1] |  | 3.46 ± 0.21 |  | 3.24 ± 0.076 |
| QRDAEISQPKSMSGRIS [BRR2] | 3.22 ± 0.058 | 3.3 ± 0.055 | 3.23 ± 0.062 | 3.18 ± 0.051 |
| LKQEIDRGLSIKLNGST [SNU114] | 2.88 ± 0.092 | 3.17 ± 0.11 | 3 ± 0.099 | 2.88 ± 0.09 |
| KTHRGLRKVACIGAWHP [RPL3] | 1.41 ± 0.064 | 3.19 ± 0.12 | 2.23 ± 0.087 | 2.92 ± 0.076 |
| NGQEQQGPVKNTQLHGP [RGR1] | 3.02 ± 0.077 | 3.12 ± 0.057 | 3.05 ± 0.052 | 3.1 ± 0.044 |
| RMYEEASGKEVEKVATA [RPN2] | 2.67 ± 0.25 |  |  |  |
| MVNSHGIRYIRLKQVFN [NNF1] | 1.46 ± 0.048 | 1.67 ± 0.04 | 1.88 ± 0.19 | 1.81 ± 0.052 |
| YWSDKKADTDTLLYEQI [SNF5] | 2.55 ± 0.079 | 2.61 ± 0.069 | 2.64 ± 0.083 | 2.3 ± 0.049 |
| ITKLNKEIRAFDKLLNI [SRB4] | 3.41 ± 0.098 | 3.44 ± 0.088 | 3.36 ± 0.077 | 3.15 ± 0.12 |
| DDSANIVNVNFMKSVIR [DIS3] | 2.92 ± 0.051 | 3.1 ± 0.06 | 3.06 ± 0.069 | 3.03 ± 0.044 |
| DDLKQKKEELVEIAYHK [RPO31] | 3.18 ± 0.16 | 3.13 ± 0.072 | 3.08 ± 0.14 | 3.08 ± 0.082 |
| EHHSSVKYASPNLNMKY [FAS2] | 3.17 ± 0.068 | 3 ± 0.06 | 2.94 ± 0.054 | 2.92 ± 0.04 |
| DNVDDIGEFNVSMYQNS [YDL088C/ASM4] | 3.41 ± 0.23 | 3.05 ± 0.28 | 2.94 ± 0.22 | 3.19 ± 0.23 |
| SYYDNDLDETTQTFNGS [YML031W/NDC1] | 2.77 ± 0.043 | 2.78 ± 0.033 | 2.66 ± 0.038 | 2.81 ± 0.033 |
| RSLRATAEERVGRRAAN [RPL15A] | 3.56 ± 0.24 | 3.52 ± 0.19 | 3.03 ± 0.2 | 2.95 ± 0.1 |
| STTQEILEFITAAQVAN [RPC34] | 2.65 ± 0.1 | 1.71 ± 0.056 | 1.9 ± 0.088 | 1.19 ± 0.048 |
| NKKIGKRPPEIMSTEAH [SIR4] | 3.09 ± 0.12 | 3.27 ± 0.17 | 3.04 ± 0.09 | 3.22 ± 0.088 |
| KFLQVMQKHGYIGEFEY [RPS22A] | 2.68 ± 0.063 | 2.27 ± 0.059 | 2.11 ± 0.092 | 2.6 ± 0.054 |
| LDKLDEILYYQIKTLPE [AAR2] | 2.89 ± 0.13 | 2.97 ± 0.14 | 3 ± 0.13 | 3.25 ± 0.15 |

| Sequence | protein stability index (doa10∆) | protein stability index (pdr5∆) | protein stability index (san1∆) | protein stability index (ubr1∆) |
| --- | --- | --- | --- | --- |
| PTTVSYIFCISRTIGMV [SCL1] | 1.99 ± 0.039 | 1.97 ± 0.051 | 2.88 ± 0.036 | 1.95 ± 0.039 |
| RLRQGAAKLRTLDYAER [RPL2A] | 1.61 ± 0.071 | 1.51 ± 0.049 | 1.56 ± 0.12 | 1.56 ± 0.048 |
| SAVKRLLHVAVSDSNDD [RPN2] | 2.39 ± 0.11 | 3.06 ± 0.071 | 2.56 ± 0.083 | 2.69 ± 0.063 |
| PSAVAGFINQKNLKPQE [YIL149C/MLP2] | 3.16 ± 0.099 | 3.1 ± 0.084 | 2.98 ± 0.05 | 3.02 ± 0.042 |
| ILVKRYSIEMKPYSGKL [ECM29] | 1.58 ± 0.048 | 1.76 ± 0.049 | 1.79 ± 0.073 | 2.43 ± 0.044 |
| LITVMEKSPDPTIRSNA [YCS4] | 2.35 ± 0.052 | 2.48 ± 0.051 | 2.34 ± 0.053 | 2.57 ± 0.038 |
| ARLAILKERAKNISSQL [YGR119C/NUP57] | 2.24 ± 0.079 | 2.77 ± 0.069 | 2.51 ± 0.072 | 2.51 ± 0.052 |
| FEFGNMKATSNTLEEFE [FAS2] | 3.18 ± 0.054 | 3.4 ± 0.08 | 3.13 ± 0.061 | 3.23 ± 0.058 |
| MERFSVLCNSNISKSRA [RRP6] | 2.42 ± 0.066 | 2.46 ± 0.096 | 1.98 ± 0.084 | 2.12 ± 0.056 |
| SQLQPQPQPQPQQQQQH [YDL088C/ASM4] | 2.79 ± 0.087 | 2.95 ± 0.074 | 2.51 ± 0.13 | 2.88 ± 0.088 |
| RRERRLIFGTIASKMSL [RPT3] | 2.31 ± 0.051 | 2.48 ± 0.068 | 2.36 ± 0.048 | 2.45 ± 0.038 |
| LGSLTVEDYLSSVTSDS [RPC82] | 2.95 ± 0.11 | 3.02 ± 0.076 | 2.19 ± 0.22 | 3.2 ± 0.074 |
| IDTSKNLENMSIQDTST [YCG1] | 2.79 ± 0.046 | 2.94 ± 0.041 | 2.71 ± 0.044 | 2.68 ± 0.041 |
| VGCKNLERLTLVFCKHI [GRR1] | 1.52 ± 0.062 | 1.91 ± 0.077 | 1.25 ± 0.11 | 1.63 ± 0.084 |
| ANSSTIRVTNSFALPFE [RPN8] | 2.46 ± 0.065 | 2.18 ± 0.05 | 2.73 ± 0.063 | 3.14 ± 0.039 |
| SYKDSGLWGFSTATRNV [COR1] | 2.98 ± 0.086 | 3.11 ± 0.094 | 3.19 ± 0.064 | 3.16 ± 0.084 |
| AEKFVPIDIFQIIRRVK [SIR3] | 1.57 ± 0.28 | 1.46 ± 0.15 |  | 1.16 ± 0.2 |
| GLIPYPHHNQSPRNTYQ [RET1] | 2.58 ± 0.078 | 2.77 ± 0.095 | 2.83 ± 0.069 | 2.93 ± 0.069 |
| ATADTTHLHEALDIVCS [NUT1] | 2.12 ± 0.056 | 2.55 ± 0.063 | 2.48 ± 0.12 | 2.69 ± 0.041 |
| NDFFPGEVVYLRKQKDS [ITC1] | 2.03 ± 0.062 | 1.39 ± 0.059 | 1.35 ± 0.12 | 1.48 ± 0.081 |
| RDLSEASVYPEYALPKT [RPS26A] | 3.11 ± 0.078 | 3.01 ± 0.067 | 3.16 ± 0.045 | 3.09 ± 0.034 |
| DCLSFAPTLSQTYINQE [SSN2] | 2.69 ± 0.074 | 2.76 ± 0.081 | 2.77 ± 0.087 | 2.91 ± 0.048 |
| TKPFENVEKYPTFVEFI [SNU114] | 2.7 ± 0.23 | 3.02 ± 0.1 | 2.87 ± 0.11 | 2.86 ± 0.11 |
| SSKTSQPKPLFSFGKSD [YOR098C/NUP1] | 2.16 ± 0.043 | 2.4 ± 0.027 | 2.19 ± 0.047 | 2.16 ± 0.035 |
| ILVFQVSMKANKYQIKK [RPL25] | 1.93 ± 0.052 | 2.2 ± 0.054 | 3.09 ± 0.046 | 3.03 ± 0.045 |
| MKVEVDSFSGAKIYPGR [RPL24B] | 3.11 ± 0.18 | 3.36 ± 0.15 | 2.52 ± 0.18 | 2.92 ± 0.18 |
